Measured values from PMC6385242, “Identification and characterization of a factor Va-binding site on human prothrombin fragment 2” (Scientific Reports, 2019).

Biological target: T1, Wild-type prothrombin (human, UniProt P00734 44-622)
T1 construct: prothrombin, human
Assay: SPR; Biacore T200; FVa amine-coupled on a CM5 chip (8000-9000 RU); prothrombin 0-10,000 nM injected for 60 s at 30 uL/min; HBS (0.02 M HEPES, 0.15 M NaCl, pH 7.4) with 5 mM CaCl2 and 0.01% Tween-80; kinetic 1:1 Langmuir model
Settings: both partners purified

Kd: 1000 nM
B1: Factor Va (complex)
heavy: AQLRQFYVAAQGISWSYRPEPTNSSLNLSVTSFKKIVYREYEPYFKKEKPQSTISGLLGPTLYAEVGDIIKVHFKNKADKPLSIHPQGIRYSKLSEGASYLDHTFPAEKMDDAVAPGREYTYEWSISEDSGPTHDDPPCLTHIYYSHENLIEDFNSGLIGPLLICKKGTLTEGGTQKTFDKQIVLLFAVFDESKSWSQSSSLMYTVNGYVNGTMPDITVCAHDHISWHLLGMSSGPELFSIHFNGQVLEQNHHKVSAITLVSATSTTANMTVGPEGKWIISSLTPKHLQAGMQAYIDIKNCPKKTRNLKKITREQRRHMKRWEYFIAAEEVIWDYAPVIPANMDKKYRSQHLDNFSNQIGKHYKKVMYTQYEDESFTKHTVNPNMKEDGILGPIIRAQVRDTLKIVFKNMASRPYSIYPHGVTFSPYEDEVNSSFTSGRNNTMIRAVQPGETYTYKWNILEFDEPTENDAQCLTRPYYSDVDIMRDIASGLIGLLLICKSRSLDRRGIQRAADIEQQAVFAVFDENKSWYLEDNINKFCENPDEVKRDDPKFYESNIMSTINGYVPESITTLGFCFDDTVQWHFCSVGTQNEILTIHFTGHSFIYGKRHEDTLTLFPMRGESVTVTMDNVGTWMLTSMNSSPRSKKLRLKFRDVKCIPDDDEDSYEIFEPPESTVMATRKMHDRLEPEDEESDADYDYQNRLAAALGIR
light: SNNGNRRNYYIAAEEISWDYSEFVQRETDIEDSDDIPEDTTYKKVVFRKYLDSTFTKRDPRGEYEEHLGILGPIIRAEVDDVIQVRFKNLASRPYSLHAHGLSYEKSSEGKTYEDDSPEWFKEDNAVQPNSSYTYVWHATERSGPESPGSACRAWAYYSAVNPEKDIHSGLIGPLLICQKGILHKDSNMPMDMREFVLLFMTFDEKKSWYYEKKSRSSWRLTSSEMKKSHEFHAINGMIYSLPGLKMYEQEWVRLHLLNIGGSQDIHVVHFHGQTLLENGNKQHQLGVWPLLPGSFKTLEMKASKPGWWLLNTEVGENQRAGMQTPFLIMDRDCRMPMGLSTGIISDSQIKASEFLGYWEPRLARLNNGGSYNAWSVEKLAAEFASKPWIQVDMQKEVIITGIQTQGAKHYLKSCYTTEFYVAYSSNQINWQIFKGNSTRNVMYFNGNSDASTIKENQFDPPIVARYIRISPTRAYNRPTLRLELQGCEVNGCSTPLGMENGKIENKQITASSFKKSWWGDYWEPFRARLNAQGRVNAWQAKANNNKQWLEIDLLKIKKITAIITQGCKSLSSEMYVKSYTIHYSEQGVEWKPYRLKSSMVDKIFEGNTNTKGHVKNFFNPPIISRFIRVIPKTWNQSIALRLELFGCDIY
notes: heavy chain of factor Va; light chain of factor Va; Bovine FVa is named only for the preparation of the heavy chain for NMR; the source of the FVa of the other experiments is in the Supplementary Materials; also called FVa
